From publication PMC12298772 come the findings set out here.

For the test, the target named is PUUV SP-mEGFP-Gc∆CT (Gc devoid of the cytoplasmic tail, labelled with mEGFP) (Puumala orthohantavirus (PUUV), strain Sotkamo/V-2969/81). As to the kind of experiment: Number and Brightness (N&B) fluorescence fluctuation microscopy.

For the substance “PUUV SP-mEGFP-Gc∆CT (Gc devoid of the cytoplasmic tail, labelled with mEGFP) (domain or fragment)”, the average multimerization came out at 1.4 and the fraction of monomers (assuming a monomer-dimer equilibrium) came out at 75 mol%.
